{"source": "paper PMC7311640", "about": "“The Beta Subunit of Non-bifurcating NADH-Dependent [FeFe]-Hydrogenases Differs From Those of Multimeric Electron-Bifurcating [FeFe]-Hydrogenases” (Frontiers in Microbiology, 2020)", "proteins": {"B1": {"name": "αβ heterodimer of Syntrophus aciditrophicus HydAB (His-HydA with HydB) (complex)", "chain 1": "MEEHMSSINLTVNNIDVEVEAGATLYQAAQKAGVNIPTLCAWFDKDHTPGACRVCVVEVEGMPSLAASCAYPAQNGMKVFTNSDKVRQARKMIVELILASHPQECNFCVRNGNCELQKVAEMVGVKNIRYDSEEFDRDRELDTSSPAIVRDSSKCINCRRCVTVCESIQTVAALSPMNRGYESTVSPAFNLPLNETNCVNCGQCVMACPVGALYEKDQVDEVWKALQDPTRHVVVQEAPAIRAALGEEFGMPPGSLVTGKMIAALRRLGFDKVFDTNFTADLTIIEEGNELLKRVKEGGTLPMITSCSPGWIKFCEHFYPDLLGHLSTCKSPQQMFGALAKTYYAQVSGIDPANIFSVSIMPCTAKKYEAQRPEMKSSGYQDVDVVLTTRELARMIKEAGIDFVNLPDEKYDDPMGEYTGAATIFGATGGVMEAALRTVYAVVTGEELSDLNIMPVRGLEGVKAAAVPVGALGDVKVAVAHGLGNARKLLDEIRAGKSEYAFIEVMCCPGGCVAGGGEPIPTTDEIRMLRAGALYRDDGEVQQYRQSHQSPPVKAVYEKFLKEPLGHKSHELLHTHYVQRGQSLPHLDASPAGEKETVEAMCEKD", "chain 2": "MITVQDIENVIAARGNAREHLMAILRDLENLSGRNVLDVSVLNTLAMKMDLPQSAISGFTSFYTMFSTEPRAKFIIRVCKSGPCHVMGARTIFDVIENHLGIRAGETTADGLFHLEECECLGLCSAAPAMMVNYDMHGNLSESNIKEILDSYSAREPAFKAEYGPGIEGRAVIINNSQQTRRLLENVGKVDPASIESYLQNGGYEAARKAFAEYSPEQVIGIVKDSGLRGRGGAGFPVGVKWSFVPKGEMQKYVICNADEGEPGTFKDRVLMEENPQQLIEGMLLCGYAIGATLGYIYVRGEYRRSIERLQSAIDQARAKGFLGKKIFGSNFDFDIFVKEGGGAYVCGEETSLINSMEGKRGYPRVRPPFPAAAGFMGMPSNVNNVETLSSIPMIVARGADWFKSVGTATCAGTKLYCLSGKVNQTGLVELPMGATLRQMIDTFGGGMKSGSSFKFAQVGGAAGGILGADLMDLPLDIDSTIKAGVTLGSGVVLVCDQETCAVDFLLNVLNFFEHESCGQCIPCKLGTSQLHYVAQKFAMREAEEKDIQLMIDTAKMMKLASLCALGQSPILPIETMIRNFREEFVKHCDPDYECPQCDASLQAYYL", "notes": "HydA, [FeFe]-hydrogenase alpha subunit, Syntrophus aciditrophicus, locus tag SYN_01370; as the chain of m1; HydB, [FeFe]-hydrogenase beta subunit, Syntrophus aciditrophicus, locus tag SYN_01369; as the chain of m2; Unit of the α2β2 heterotetramer found by size exclusion chromatography; also called HydAB fraction; 144 kDa αβ heterodimer; source: E. coli BL21(DE3), co-expressed with maturation genes"}}, "biological_target": "the molecule itself", "assay": "SEC; purified HydAB fraction on Superdex 200 10/300 GL calibrated with gel filtration standards"}
{"protein": "B1", "values": [{"measurement": "stoichiometry N", "value": 2}]}
